Publication PMC11617104 (Molecular Biology of the Cell, 2024)

How the values were obtained:
[1] = biological target: G3BP1 NTF2L domain (residues 1-139), V11A (UniProt Q13283 1-139, V11A); experiment: differential scanning fluorimetry
[2] = biological target: G3BP1 NTF2L domain (residues 1-139), wild type (UniProt Q13283 1-139); experiment: differential scanning fluorimetry
Chain of G3BP1 NTF2L domain (residues 1-139), wild type (Q13283 1-139): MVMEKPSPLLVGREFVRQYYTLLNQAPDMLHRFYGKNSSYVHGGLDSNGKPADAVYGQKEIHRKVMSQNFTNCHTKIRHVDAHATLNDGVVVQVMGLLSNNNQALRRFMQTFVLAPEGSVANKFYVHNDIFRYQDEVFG

Chain of G3BP1 NTF2L domain (residues 1-139), V11A (Q13283 1-139 V11A): as the sequence (Q13283 1-139) above, with V11A counted along it

RQRVQDLMAQMQGPYNFIQDSMLDFENQTLD [Caprin-1 peptide (residues 356-386)]
thermal shift (ΔTm) [1]: 1 to 1.5 °C
thermal shift (ΔTm) at 50 µM and 100 µM Caprin-1 peptide [2]: ~3 °C
